Laboratory results from the supplement of paper PMC12764529.
± gives the half width of the 95% confidence interval.

How the values were obtained:
[1] = folding stability dG unfold from chymotrypsin proteolysis; higher = more stable
Summary of the method: (§1)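 Designed mini-proteins with no cysteine and under 80 residues were kept only if AlphaFold2 dimer inter-PAE was above 15. In a PA-tagged cDNA display construct, they were digested with trypsin and chymotrypsin and then sequenced. K50 was inferred by Bayesian fitting of counts, and unfolding free energy was derived per protease or combined against a sequence-predicted unfolded-state K50 and a shared folded-state K50.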

[2] = folding stability dG unfold from trypsin proteolysis; higher = more stable
Summary of the method: as §1

[3] = folding stability dG unfold (combined trypsin and chymotrypsin); higher = more stable
Summary of the method: as §1

Row | Sequence | folding stability dG unfold [1] [kcal/mol] | folding stability dG unfold [2] [kcal/mol] | folding stability dG unfold [3] [kcal/mol]
1 | SALIETAEELARELGVEAELVEIEEGEDVALLRIRLRVDGVPYYFLVRIERPGEDPRIFRVEILEVRPESAG [r14_387_TrMRF] | 4.302 ± 0.034 | 3.67 ± 0.071 | 4.066 ± 0.031
2 | SALKGLKITEIKEVTNEDGSKSLVVRVDGYLLVFDLDTKKLTLVPLPPVTVTVTVYEKKADPNKPEYKKKSA [r9_1065_TrROS_Hall] | 3.15 ± 0.056 | 1.71 ± 0.042 | 2.77 ± 0.16
3 | SALKISVTVDPDGPTATATLELYNPETGKPTTLTATIHRLPDGSYLVTIHFPSNNKTITFTVPEDGVITLSA [r9_1220_TrMRF] | 3.48 ± 0.038 | 2.38 ± 0.09 | 3.03 ± 0.12
4 | SALPNLKIEITLNEDGTITITVTANGEVIATATLTVTLPPPPVEKEVLDANGNKRTVRYDAKTGKAEVFDSA [r9_343_TrROS_Hall] | 0.065 ± 0.29 | 0.106 ± 0.17 | 0.0728 ± 0.47
5 | SALTLEELEKRYPELPSELLEKIKEEAEKVPKDRTLTFLLTAPDGRRVRITVTKPDTVTVTVLPPGVPEASA [r9_1024_JUSTAS] | 4.12 ± 0.094 | 4.13 ± 0.3 | 4.14 ± 0.14
6 | SALWVIKDTIKPPNGKKRKISIAIPNDGLYVWFNGGSFPIPLKEIKKIMENFPGYQIDDIEIMPLDELKSAG [r14_336_TrROS] | -0.15 ± 0.53 | 0.798 ± 0.19 | 0.448 ± 0.32
7 | SAMDLLRERGYDVEEVTKLRDEVLPNGTIVTLYEVTVRLPDRVITTPIKVSGESEEEAEKLAYETVARESAG [r14_726_JUSTAS] | 0.582 ± 0.071 | 0.49 ± 0.031 | 0.543 ± 0.069
8 | SAMEIEKIEIEKEEVNGKLYYRIRVKIINKETGKEIELELEFKSLEDALEALKKLPNITRVEITEIEPVSAG [r14_464_TrROS_Hall] | 5.18 ± 0.091 | 3.55 ± 0.11 | 4.93 ± 0.093
9 | SAMEIVIEFESPEEAEKAIKEYVEKKGLKAVEIKMEFEPKWVEEKTPTGVKVTKEKYVAKVTVVTSKELSAG [r14_773_JUSTAS] | 2.03 ± 0.095 | 0.457 ± 0.21 | 1.28 ± 0.32
10 | SAMELSPEERAELLIEAVRRKLEEARKKGIPNKKVKVTIVLSEEEREALAKRIEEELKEEGYEVEIVPESAG [r14_908_TrROS_Hall] | 2.61 ± 0.13 | 2.17 ± 0.068 | 2.29 ± 0.17
11 | SAMEVKIEKVEVKDGTVRITVTVKVSEEQLEKVKELAEKLKEKGYEVKVVKVEKLEDGTIKVEIEVKPKSAG [r14_354_TrROS_Hall] | 2.36 ± 0.17 | 2.7 ± 0.32 | 2.66 ± 0.92
12 | SAMIEIEAVFPPNVSLEEAVEAVKAEIESKGFEILEVKVEKLPNGEVLVRAVVKVKPEMPPEEIKKLAESAG [r14_110_TrMRF] | 2.44 ± 0.2 | 1.5 ± 0.06 | 2.07 ± 0.19
13 | SAMIEIEIEVEEREDGRLIVRVRIRNKETGEEIELELEMSREEVEKLLEELKKLFPNLEIVEVEIRELPSAG [r14_969_TrROS_Hall] | 3.29 ± 0.24 | 4 ± 0.15 | 3.98 ± 0.45
14 | SAMIEILSIEEFTRPDGKKLYKITLKTPDPEKVLEKLIELGVKPEIDPNNPDILIAVFPYEKIEEILKESAG [r14_777_TrMRF] | 5.05 ± 0.23 | 3.12 ± 0.14 | 4.77 ± 0.31
15 | SAMIMIRVEYPNGKTWPIMIPLRTPDGDPTKEEVEEIAERIADEIAEEHGGDNVKIEIQVMPMPPEENPSAG [r14_378_TrROS] | 1.5 ± 0.12 | 2.23 ± 0.081 | 1.82 ± 0.24
16 | SAMIVVEIEESRSPTSPERTVTVTVKKPDGTVVKTIPITVSGANPSATPEEVRALAEPIVEELVKKGLLSAG [r14_120_JUSTAS] | 1.47 ± 0.045 | 1.44 ± 0.026 | 1.55 ± 0.13
17 | SAMKAEVYILVYDKNGKLIAKIPIKAEEVLEDPEKFLETVKTVVEEFSGIGVKLKIYFPSTGKEVEIEASAG [r14_972_TrMRF] | 3.35 ± 0.045 | 4.2 ± 0.65 | 3.6 ± 0.23
18 | SAMKEGEEYEPVEKKKITIKNKKTNKTIEIEVVRNKKTNKYIVKITTKDGKKIEIVVSKEELEKLLKKLSAG [r14_240_TrROS_Hall] | 3.08 ± 0.17 | 2.25 ± 0.19 | 3.01 ± 0.26
19 | SAMKETEIPDPVTGNTYTVIDFDDATVVIKNYPDSLTITIIPPPSNTSTTIPMKPGEEEKVLKELGIPPSAG [r14_4_JUSTAS] | 0.316 ± 0.23 | 0.591 ± 0.087 | 0.568 ± 0.16
20 | SAMKIEIIEEKEGEIIIKIEATKEEVEELAEELKKKFPGVEVEVEYDKETKKVYIRIKFKKKPSEEELKSAG [r14_600_TrROS_Hall] | 3.9 ± 0.33 | 3.05 ± 0.62 | 3.82 ± 0.31
21 | SAMKITDVTVERNPDNGWYEVMVTFEFDNGPVTVKIWMPRDGNMPIDVYDMGNGEPKGEIWIPADQIKFSAG [r14_608_TrROS] | 1.35 ± 0.1 | 0.893 ± 0.022 | 1.15 ± 0.075
